The subject of this data set is Escherichia coli TOP10. Nature of the data set: shrunken log2 fold change of peptide-encoding DNA abundance (4.5 h post-induction vs induction); higher = less antimicrobial activity (less host growth inhibition). The following applies: time post-induction: 4.5 h; library: site-saturation at positions 5, 18, 19, 20.
With RRIRWRPPRLPRPRPRPSVPPRP, the “shrunken log2 fold change” value stood at 0.045.

Regarding RRIRSRPPRLPRPRPRPRASPRP, the “shrunken log2 fold change” value came to 0.346.

For RRIRNRPPRLPRPRPRPDIAPRP, the “shrunken log2 fold change” value is -0.0447.

Regarding RRIRNRPPRLPRPRPRPIDHPRP, the “shrunken log2 fold change” value was -0.169.

Take RRIRSRPPRLPRPRPRPSMVPRP: the “shrunken log2 fold change” value was -0.368.

In the case of RRIRTRPPRLPRPRPRPNFPPRP, the “shrunken log2 fold change” value was -0.00778.

Consider RRIRFRPPRLPRPRPRPVHQPRP, for which the “shrunken log2 fold change” value worked out at 0.124.

For RRIRLRPPRLPRPRPRPGQCPRP, the “shrunken log2 fold change” value was -0.0373.

On to RRIRHRPPRLPRPRPRPLQRPRP, for which the “shrunken log2 fold change” value is -0.187.

For RRIRSRPPRLPRPRPRPCDIPRP, the “shrunken log2 fold change” value was -0.0321.

Take RRIRSRPPRLPRPRPRPSGRPRP: the “shrunken log2 fold change” value turned out to be 0.185.

As to RRIRRRPPRLPRPRPRPYHIPRP, the “shrunken log2 fold change” value is -0.365.

Turning to RRIRPRPPRLPRPRPRPRGGPRP, the “shrunken log2 fold change” value was found to be 0.605.

As for RRIRERPPRLPRPRPRPMMVPRP, the “shrunken log2 fold change” value is 0.0544.

As for RRIRCRPPRLPRPRPRPHVWPRP, the “shrunken log2 fold change” value is -0.185.

With RRIRWRPPRLPRPRPRPAFDPRP, the “shrunken log2 fold change” value is 0.397.

On to RRIRQRPPRLPRPRPRPDWFPRP, for which the “shrunken log2 fold change” value is -0.104.

For RRIRCRPPRLPRPRPRPAYWPRP, the “shrunken log2 fold change” value came out at 0.293.

Turning to RRIRERPPRLPRPRPRPMTTPRP, the “shrunken log2 fold change” value is -0.023.

Turning to RRIRLRPPRLPRPRPRPWCYPRP, the “shrunken log2 fold change” value was -0.489.

As to RRIRWRPPRLPRPRPRPIWWPRP, the “shrunken log2 fold change” value was 0.314.

In the case of RRIRIRPPRLPRPRPRPRTAPRP, the “shrunken log2 fold change” value was determined as 0.436.

In the case of RRIRGRPPRLPRPRPRPQDQPRP, the “shrunken log2 fold change” value is 0.531.

With RRIRARPPRLPRPRPRPAVTPRP, the “shrunken log2 fold change” value worked out at 0.214.

On to RRIRKRPPRLPRPRPRPQEQPRP, for which the “shrunken log2 fold change” value is 0.225.

Take RRIRDRPPRLPRPRPRPISNPRP: the “shrunken log2 fold change” value was -0.175.

Turning to RRIRLRPPRLPRPRPRPVLAPRP, the “shrunken log2 fold change” value worked out at 0.104.

As for RRIRRRPPRLPRPRPRPAREPRP, the “shrunken log2 fold change” value is 0.925.

With RRIRTRPPRLPRPRPRPWFSPRP, the “shrunken log2 fold change” value is -0.152.

With RRIRVRPPRLPRPRPRPHTRPRP, the “shrunken log2 fold change” value is -0.178.

For RRIRERPPRLPRPRPRPHGPPRP, the “shrunken log2 fold change” value amounted to 0.139.

Regarding RRIRARPPRLPRPRPRPWERPRP, the “shrunken log2 fold change” value came out at 0.12.

Turning to RRIRTRPPRLPRPRPRPRFPPRP, the “shrunken log2 fold change” value is 0.115.

RRIRCRPPRLPRPRPRPQCPPRP: the “shrunken log2 fold change” value was -0.399.

For the sequence RRIRERPPRLPRPRPRPAIYPRP, the “shrunken log2 fold change” value was -0.051.

With RRIRFRPPRLPRPRPRPDIQPRP, the “shrunken log2 fold change” value was -0.628.

As to RRIRIRPPRLPRPRPRPSCGPRP, the “shrunken log2 fold change” value is -0.174.

As to RRIRERPPRLPRPRPRPLWDPRP, the “shrunken log2 fold change” value stood at 0.108.

RRIRPRPPRLPRPRPRPTCYPRP: the “shrunken log2 fold change” value was -0.127.

For the sequence RRIRMRPPRLPRPRPRPCFSPRP, the “shrunken log2 fold change” value was -0.141.

For the sequence RRIRPRPPRLPRPRPRPWNKPRP, the “shrunken log2 fold change” value was 0.163.

On to RRIRRRPPRLPRPRPRPDHWPRP, for which the “shrunken log2 fold change” value is -0.136.

RRIRCRPPRLPRPRPRPKWTPRP: the “shrunken log2 fold change” value is -0.0568.

RRIRLRPPRLPRPRPRPFCDPRP: the “shrunken log2 fold change” value was -0.366.

In the case of RRIRIRPPRLPRPRPRPIFPPRP, the “shrunken log2 fold change” value was -0.104.

As for RRIRCRPPRLPRPRPRPFKEPRP, the “shrunken log2 fold change” value was -0.342.

On to RRIRGRPPRLPRPRPRPHKVPRP, for which the “shrunken log2 fold change” value was 0.184.

Consider RRIRWRPPRLPRPRPRPDIVPRP, for which the “shrunken log2 fold change” value is 0.469.

RRIRNRPPRLPRPRPRPWDDPRP: the “shrunken log2 fold change” value was 0.0288.

For RRIRKRPPRLPRPRPRPIVFPRP, the “shrunken log2 fold change” value is -0.0542.

As for RRIRFRPPRLPRPRPRPAYIPRP, the “shrunken log2 fold change” value was -0.601.

For RRIRMRPPRLPRPRPRPPETPRP, the “shrunken log2 fold change” value turned out to be 0.807.

For RRIRQRPPRLPRPRPRPVWVPRP, the “shrunken log2 fold change” value is 0.0799.

With RRIRQRPPRLPRPRPRPNGYPRP, the “shrunken log2 fold change” value is -0.121.

On to RRIRCRPPRLPRPRPRPDGKPRP, for which the “shrunken log2 fold change” value was -0.0306.

As for RRIRNRPPRLPRPRPRPYSCPRP, the “shrunken log2 fold change” value was -1.1.

For RRIRRRPPRLPRPRPRPCWFPRP, the “shrunken log2 fold change” value amounted to 0.225.

As to RRIRIRPPRLPRPRPRPPMHPRP, the “shrunken log2 fold change” value is -0.0688.

As to RRIRNRPPRLPRPRPRPTAHPRP, the “shrunken log2 fold change” value came out at 0.0105.

For RRIRLRPPRLPRPRPRPNHDPRP, the “shrunken log2 fold change” value was -0.333.

Turning to RRIRRRPPRLPRPRPRPTSNPRP, the “shrunken log2 fold change” value was 0.123.

For RRIRIRPPRLPRPRPRPQHKPRP, the “shrunken log2 fold change” value is -0.621.

Take RRIRNRPPRLPRPRPRPYKNPRP: the “shrunken log2 fold change” value is -0.941.

As for RRIRDRPPRLPRPRPRPSPRPRP, the “shrunken log2 fold change” value was 0.00292.

Take RRIRLRPPRLPRPRPRPMEYPRP: the “shrunken log2 fold change” value stood at 0.015.

As to RRIRCRPPRLPRPRPRPCCKPRP, the “shrunken log2 fold change” value was -0.0101.

In the case of RRIRIRPPRLPRPRPRPVRNPRP, the “shrunken log2 fold change” value was -0.0578.

With RRIRGRPPRLPRPRPRPAHCPRP, the “shrunken log2 fold change” value stood at 1.06.

Consider RRIRWRPPRLPRPRPRPFVIPRP, for which the “shrunken log2 fold change” value was -0.396.

On to RRIRARPPRLPRPRPRPAITPRP, for which the “shrunken log2 fold change” value was found to be 0.322.

For the sequence RRIRWRPPRLPRPRPRPGVDPRP, the “shrunken log2 fold change” value is 0.371.

Regarding RRIRGRPPRLPRPRPRPTGEPRP, the “shrunken log2 fold change” value is 0.0778.

For the sequence RRIRFRPPRLPRPRPRPYCNPRP, the “shrunken log2 fold change” value was -1.06.

RRIRGRPPRLPRPRPRPKSYPRP: the “shrunken log2 fold change” value was 0.685.

Take RRIRFRPPRLPRPRPRPIGFPRP: the “shrunken log2 fold change” value was -0.27.

With RRIRTRPPRLPRPRPRPEGTPRP, the “shrunken log2 fold change” value is 0.0681.

Consider RRIRWRPPRLPRPRPRPDACPRP, for which the “shrunken log2 fold change” value stood at 0.00464.

For the sequence RRIRTRPPRLPRPRPRPCWPPRP, the “shrunken log2 fold change” value is 0.0465.

For the sequence RRIRVRPPRLPRPRPRPHVCPRP, the “shrunken log2 fold change” value is -0.0775.

As for RRIRARPPRLPRPRPRPECEPRP, the “shrunken log2 fold change” value came out at 0.0705.

With RRIRLRPPRLPRPRPRPWRTPRP, the “shrunken log2 fold change” value turned out to be 0.0595.

Consider RRIRTRPPRLPRPRPRPTMCPRP, for which the “shrunken log2 fold change” value is -0.416.

Take RRIRYRPPRLPRPRPRPRHYPRP: the “shrunken log2 fold change” value was -0.974.

For RRIRARPPRLPRPRPRPWLRPRP, the “shrunken log2 fold change” value stood at 0.228.

For the sequence RRIRNRPPRLPRPRPRPLIFPRP, the “shrunken log2 fold change” value is 1.39.

In the case of RRIRFRPPRLPRPRPRPVCSPRP, the “shrunken log2 fold change” value is -0.279.

In the case of RRIRLRPPRLPRPRPRPYSHPRP, the “shrunken log2 fold change” value was -0.444.

With RRIRCRPPRLPRPRPRPGNVPRP, the “shrunken log2 fold change” value is -0.357.

On to RRIRPRPPRLPRPRPRPSFKPRP, for which the “shrunken log2 fold change” value is -0.123.

For the sequence RRIRVRPPRLPRPRPRPLAFPRP, the “shrunken log2 fold change” value is -0.221.

In the case of RRIRWRPPRLPRPRPRPFLPPRP, the “shrunken log2 fold change” value was -0.687.

For RRIRGRPPRLPRPRPRPMGGPRP, the “shrunken log2 fold change” value is 0.458.

Regarding RRIRERPPRLPRPRPRPSCDPRP, the “shrunken log2 fold change” value is -0.281.

Take RRIRQRPPRLPRPRPRPPDQPRP: the “shrunken log2 fold change” value stood at 1.82.

For RRIRMRPPRLPRPRPRPIRPPRP, the “shrunken log2 fold change” value is -0.127.

On to RRIRGRPPRLPRPRPRPKRAPRP, for which the “shrunken log2 fold change” value stood at 1.11.

As for RRIRARPPRLPRPRPRPNPSPRP, the “shrunken log2 fold change” value stood at 0.262.

As for RRIRLRPPRLPRPRPRPMLGPRP, the “shrunken log2 fold change” value was 0.0421.

For the sequence RRIRFRPPRLPRPRPRPARQPRP, the “shrunken log2 fold change” value was found to be 0.379.

Take RRIRQRPPRLPRPRPRPQINPRP: the “shrunken log2 fold change” value is -0.285.

Consider RRIRRRPPRLPRPRPRPVYVPRP, for which the “shrunken log2 fold change” value is -0.198.

RRIRRRPPRLPRPRPRPHQQPRP: the “shrunken log2 fold change” value is -0.0551.

Consider RRIRSRPPRLPRPRPRPWSSPRP, for which the “shrunken log2 fold change” value amounted to 0.0531.

RRIRDRPPRLPRPRPRPQMQPRP: the “shrunken log2 fold change” value came to 0.135.

Turning to RRIRVRPPRLPRPRPRPEWSPRP, the “shrunken log2 fold change” value came out at 0.267.

Take RRIRVRPPRLPRPRPRPFREPRP: the “shrunken log2 fold change” value was determined as 0.0848.

In the case of RRIRVRPPRLPRPRPRPLYPPRP, the “shrunken log2 fold change” value was -0.586.

As to RRIRARPPRLPRPRPRPVMQPRP, the “shrunken log2 fold change” value came out at 0.305.

Turning to RRIRQRPPRLPRPRPRPMLGPRP, the “shrunken log2 fold change” value was 0.0371.

In the case of RRIRQRPPRLPRPRPRPGPRPRP, the “shrunken log2 fold change” value was 0.565.

Consider RRIRRRPPRLPRPRPRPKRRPRP, for which the “shrunken log2 fold change” value was 0.525.

On to RRIRKRPPRLPRPRPRPLPQPRP, for which the “shrunken log2 fold change” value was 0.729.

For the sequence RRIRHRPPRLPRPRPRPMNVPRP, the “shrunken log2 fold change” value is -0.0594.

Consider RRIRFRPPRLPRPRPRPGYIPRP, for which the “shrunken log2 fold change” value was -0.0716.

For RRIRQRPPRLPRPRPRPQSWPRP, the “shrunken log2 fold change” value was 0.0219.

As to RRIRLRPPRLPRPRPRPMKMPRP, the “shrunken log2 fold change” value was -0.409.

RRIRLRPPRLPRPRPRPKYWPRP: the “shrunken log2 fold change” value was -0.131.

For RRIRIRPPRLPRPRPRPQNCPRP, the “shrunken log2 fold change” value was -0.0145.

RRIRDRPPRLPRPRPRPNLLPRP: the “shrunken log2 fold change” value was -0.0507.

As for RRIRNRPPRLPRPRPRPNGEPRP, the “shrunken log2 fold change” value was determined as 0.0257.

Take RRIRCRPPRLPRPRPRPMECPRP: the “shrunken log2 fold change” value was -0.00088.

On to RRIRWRPPRLPRPRPRPTHRPRP, for which the “shrunken log2 fold change” value worked out at 0.8.

For RRIRTRPPRLPRPRPRPFITPRP, the “shrunken log2 fold change” value is -0.689.

For RRIRGRPPRLPRPRPRPCMAPRP, the “shrunken log2 fold change” value worked out at 0.703.

RRIRDRPPRLPRPRPRPQMIPRP: the “shrunken log2 fold change” value is -0.197.

The record behind these values is the supplement of paper PMC9112550, “Optimization of the antimicrobial peptide Bac7 by deep mutational scanning” (BMC Biology, 2022).
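Note: peptides expressed intracellularly from a pBAD plasmid library in pooled LB shake-flask culture, induced with 0.3% L-arabinose, DNA abundance read by NGS, three biological replicates, DESeq2 with apeglm shrinkage.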
